Reference: PMC12748981

Molecular target: GST-NUPR1 (UniProt O60356)
Test: SPR
Settings: VHH

UniProt O60356, sequence (O60356 whole entry): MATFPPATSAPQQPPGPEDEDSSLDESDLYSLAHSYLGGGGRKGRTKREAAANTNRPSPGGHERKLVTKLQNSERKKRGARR

## sdAb#07.81-3xFlag-cOdc1-Tat-6xHis (from UniProt P00860)
  Kd: 307 nM
